Experiment [1] concerns the target T1, NRP2-Fc (R&D Systems #2215-N2) (human, UniProt O60462 23-864, limits assumed).
T1 construct: Bought reagent; also called human NRP2; Neuropilin 2; not shown: Fc of the bought fusion
Description: SPR, MARS Fc-WHEP immobilised, 20 nM NRP2 as analyte. Background: In SPR one partner is held on a chip, and binding of the other changes the refractive index at the surface.

In experiment [2] the target is T1, NRP2-Fc (R&D Systems #2215-N2). The experiment in a line: SPR, WARS WHEP immobilised, 20 nM NRP2 as analyte.
In experiment [3] the target is T2, NRP2a-GFP fusion protein on HEK293T cells (human, UniProt O60462 23-931).
T2 construct: Transiently transfected HEK293T cells, fixed before staining; also called NRP2v2-GFP; cell-expressed NRP2a; not shown: GFP and any linker of the Origene clone
Description: immunofluorescence microscopy, competition on HEK293T cells overexpressing NRP2v2-GFP, GFP Bright gate; VEGF-C titrated, competitor 175 nM Fc-HRS(2-60)/anti-Fc-PE. As for the experimental part:
HEK293T cells previously transfected with NRP2v2-GFP were passed the night before staining to 96 well Greiner Clear flat bottomed Microplates pre-coated with collagen coating solution. Supernatants were removed and cells were washed 1 time with binding buffer. Cells were then fixed with 50 μL of 3.7% methanol-free formaldehyde for 20 minutes at room temperature. Cells were washed 2× with binding buffer and then blocked with 100 μL of blocking buffer for 1 hour at room temperature. The cells were then washed one time with binding buffer and then incubated with 50 μL of staining complex overnight at 4 degrees Celsius. […] The Hoechst stain was replaced with 1×PBS and subsequently read on an IN Cell Analyzer 2200. 20× images were acquired and analyzed using In Cell Analyzer 1000 Workstation software. Segmentation of the cell mask was achieved using the GFP channel, and the average PE signal intensity was determined within this mask above a threshold intensity of 5000 (termed GFP Bright cells).

Experiment [4] has as its target T1, NRP2-Fc (R&D Systems #2215-N2). Description: SPR (column: Binding to NRP2 observed by SPR).
The target is the same in experiment [5]. The experiment in a line: SPR, GARS Fc-WHEP immobilised, 20 nM NRP2 as analyte.

The values that follow come from patent publication US20230039401A1 (ATYR PHARMA, published 2023).

B1: MARS Fc-WHEP (Fc fusion, UniProt P56192 841-897, looked up)
chain: QIQALMDEVTKQGNIVRELKAQKADKNEVAAEVAKLLDLKKQLAVAEGKPPEAPKGK
notes: domain: WHEP domain; also called Fc domain fused to the WHEP domain of MARS; not shown: Fc domain
As for B1, the binding result in experiment [1] is listed as “no binding (tested: 20 nM)”.

B2: WARS WHEP (other, UniProt P23381 8-64, looked up)
chain: SLLELFNSIATQGELVRSLKAGNASKDEIDSAVKMLVSLKMSYKAAAGEDYKADCPP
notes: domain: WHEP domain; also called WHEP domain of WARS with a V5/His tag; not shown: V5/His tag
For B2, the binding result in experiment [2] is given as “no binding (tested: 20 nM)”.

B3: Recombinant Human VEGF-C Protein (R&D Systems cat 2179-VC-025/CF) (ligand, UniProt P49767 103-227, looked up)
chain: TEETIKFAAAHYNTEILKSIDNEWRKTQCMPREVCIDVGKEFGVATNTFFKPPCVSVYRCGGCCNSEGLQCMNTSTSYLSKTLFEITVPLSQGPKPVTISFANHTSCRCMSKLDVYRQVHSIIRR
notes: Reagent of the cell immunofluorescence assay; Its catalogue number differs from that of the SPR reagent
As for B3, in experiment [3], the “IC50 (read off the curve)” value is around 2 nM.

B4: VEGF-A145 (R&D Systems #7626-VE-CF) (ligand, human, UniProt P15692-6 27-171, looked up)
chain: APMAEGGGQNHHEVVKFMDVYQRSYCHPIETLVDIFQEYPDEIEYIFKPSCVPLMRCGGCCNDEGLECVPTEESNITMQIMRIKPHQGQHIGEMSFLQHNKCECRPKKDRARQEKKSVRGKGKGQKRKRKKSRYKSWSVCDKPRR
For the molecule B4, in experiment [4], the binding result is reported as “no binding”.

B5: VEGF-A121 (Peprotech #100-20A) (ligand, human, UniProt P15692-9 27-147, looked up)
chain: APMAEGGGQNHHEVVKFMDVYQRSYCHPIETLVDIFQEYPDEIEYIFKPSCVPLMRCGGCCNDEGLECVPTEESNITMQIMRIKPHQGQHIGEMSFLQHNKCECRPKKDRARQEKCDKPRR
Regarding B5, the binding result in experiment [4] is “no binding”.

B6: GARS Fc-WHEP (Fc fusion, UniProt P41250 63-119, looked up)
chain: VLAPLRLAVRQQGDLVRKLKEDKAPQVDVDKAVAELKARKRVLEAKELALQPKDDIV
notes: domain: WHEP domain; also called Fc domain fused to the WHEP domain of GARS; not shown: Fc domain
B6: in experiment [5], the binding result was “no binding (tested: 20 nM)”.
